The source of these data is patent US20100273160A1.

For this test, the target named is T1, MIS type II receptor (MISRII) on mouse ovarian cancer cell lines MOVCAR 7 and 4306 (mouse) (UniProt Q8K592).
T1 sequence (looked up): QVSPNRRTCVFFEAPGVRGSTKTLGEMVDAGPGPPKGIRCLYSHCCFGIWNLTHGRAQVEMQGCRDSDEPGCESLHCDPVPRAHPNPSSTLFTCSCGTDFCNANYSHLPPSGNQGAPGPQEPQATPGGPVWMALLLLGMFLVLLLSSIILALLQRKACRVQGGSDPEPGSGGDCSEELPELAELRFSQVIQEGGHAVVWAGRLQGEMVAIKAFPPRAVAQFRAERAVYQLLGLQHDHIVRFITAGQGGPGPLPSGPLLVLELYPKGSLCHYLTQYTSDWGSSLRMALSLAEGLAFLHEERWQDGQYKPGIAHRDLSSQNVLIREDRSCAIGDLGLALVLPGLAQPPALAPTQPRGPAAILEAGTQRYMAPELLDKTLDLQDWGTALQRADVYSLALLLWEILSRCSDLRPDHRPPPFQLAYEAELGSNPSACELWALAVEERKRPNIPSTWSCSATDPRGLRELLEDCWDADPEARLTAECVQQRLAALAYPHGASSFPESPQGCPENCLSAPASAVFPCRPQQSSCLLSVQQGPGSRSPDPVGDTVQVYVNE
The test can be described thus: cell-based or functional assay.

B1: recombinant human Mullerian Inhibiting Substance (MIS) (ligand)
chain: LRAEEPAVGTSGLIFREDLDWPPGSPQEPLCLVALGGDSNGSSSPLRVVGALSAYEQAFLGAVQRARWGPRDLATFGVCNTGDRQAALPSLRRLGAWLRDPGGQRLVVLHLEEVTWEPTPSLRFQEPPPGGAGPPELALLVLYPGPGPEVTVTRAGLPGAQSLCPSRDTRYLVLAVDRPAGAWRGSGLALTLQPRGEDSRLSTARLQALLFGDDHRCFTRMTPALLLLPRSEPAPLPAHGQLDTVPFPPPRPSAELEESPPSADPFLETLTRLVRALRVPPARASAPRLALDPDALAGFPQGLVNLSDPAALERLLDGEEPLLLLLRPTAATTGDPAPLHDPTSAPWATALARRVAAELQAAAAELRSLPGLPPATAPLLARLLALCPGGPGGLGDPLRALLLLKALQGLRVEWRGRDPRGPGRAQRSAGATAADGPCALRELSVDLRAERSVLIPETYQANNCQGVCGWPQSDRNPRYGNHVVLLLKMQARGAALARPPCCVPTAYAGKLLISLSEERISAHHVPNMVATECGCR
For B1, the MTT proliferation assay, 4306 SP cells after first sort, 10 µg/ml MIS, inhibition versus vehicle was determined as 37%; the MTT proliferation assay, 4306 SP cells after sort 2, MIS, inhibition worked out at 60%; the MTT proliferation assay, 4306 SP cells after sort 3, MIS, inhibition (not significant) was found to be 17%; the MTT proliferation assay, MOVCAR 7 NSP cells after first sort, 10 µg/ml MIS, inhibition versus vehicle was found to be 93%. The MTT proliferation assay, MOVCAR 7 SP cells after first sort, 10 µg/ml MIS, inhibition versus vehicle was determined as 86%; the MTT proliferation assay, MOVCAR 7 SP cells after sort 2, MIS, inhibition is 93%; the MTT proliferation assay, MOVCAR 7 SP cells after sort 3, MIS, inhibition was determined as 94%.
